These results are taken from US20230265215A1 (OMEROS, published 2023).

Assay [1] addresses T1, Human MASP-2 CCP1/CCP2/SP H508Q 'dog-like' (human, UniProt O00187 287-686, limits assumed).
T1 construct: also called dog-like variant of human MASP-2; MASP-2 H508Q
Description: BLI (Octet RED96), H508Q against wild-type human MASP-2 CCP1/CCP2/SP. How it is done:
All measurements were conducted with the Octet RED96 system (ForteBio) using PBS containing 1% BSA and 0.02% Tween 20 as assay buffer. […] After one step of baseline, the captured sensors were submerged into wells containing different concentrations of the target proteins (1.6-50 nM) for the association step (120 sec), and then transferred to empty wells for the dissociation step (200 sec). In all experiments, the captured sensor was also dipped in a well containing no analyte to allow single reference subtraction to compensate for the natural dissociation of the captured antibody. The recorded binding sensorgrams were analyzed with Octet data analysis software (ForteBio) to determine binding affinity (KD).

Assay [2] deals with T2, human MASP-2 (CCP1-CCP2-SP fragment) (human, UniProt O00187 287-686, limits assumed).
T2 construct: also called human MASP-2 (CCP1/2/SP fragment); hMASP-2-CCP1-CCP2-SP
The assay is described as follows: solid phase ELISA, plate coated with human MASP-2 (CCP1-CCP2-SP fragment), bound mAb detected with goat anti-human IgG-HRP, OD450. The protocol:
To measure binding of the 26 purified recombinant MASP-2 antibodies to human MASP-2 (CCP1-CCP2-SP fragment), a solid phase ELISA assay was carried out as follows. A MaxiSorp ELISA plate was coated with human MASP-2 (CCP1/2/SP fragment) at 1.0 μg/mL in carbonate/bi-carbonate buffer overnight at 4° C. […] The plate was washed (PBS-T, 0.05%) and a detection antibody was added (goat anti-human IgG-HRP) for one hour at room temperature. After another wash (PBS-T, 0.05%) the plate was developed (5 minutes) with OPT EIA TMB (BD Biosciences #555214). Absorbance reading at A450 was measured using the Spectramax M5e plate reader.
A solid phase ELISA assay was carried out to measure binding of the three selected MASP-2 inhibitory antibodies to human MASP-2 (CCP1-CCP2-SP fragment), as described in Example 1.
(ELISA stands for enzyme-linked immunosorbent assay.)

T2 sequence (O00187 287-686 limits assumed): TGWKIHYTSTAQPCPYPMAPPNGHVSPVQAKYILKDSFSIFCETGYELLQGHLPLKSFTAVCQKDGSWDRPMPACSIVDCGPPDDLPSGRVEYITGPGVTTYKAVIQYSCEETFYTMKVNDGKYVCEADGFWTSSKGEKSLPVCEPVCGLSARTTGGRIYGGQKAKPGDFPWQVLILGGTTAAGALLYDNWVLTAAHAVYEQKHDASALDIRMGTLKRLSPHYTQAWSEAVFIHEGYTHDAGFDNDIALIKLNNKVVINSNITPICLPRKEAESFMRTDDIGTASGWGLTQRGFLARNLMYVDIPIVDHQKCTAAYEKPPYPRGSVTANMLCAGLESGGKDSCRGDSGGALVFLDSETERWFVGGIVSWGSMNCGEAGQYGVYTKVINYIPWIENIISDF
T1 sequence (O00187 other isoform, or with tags, fused parts or gaps H508Q H508Q limits assumed): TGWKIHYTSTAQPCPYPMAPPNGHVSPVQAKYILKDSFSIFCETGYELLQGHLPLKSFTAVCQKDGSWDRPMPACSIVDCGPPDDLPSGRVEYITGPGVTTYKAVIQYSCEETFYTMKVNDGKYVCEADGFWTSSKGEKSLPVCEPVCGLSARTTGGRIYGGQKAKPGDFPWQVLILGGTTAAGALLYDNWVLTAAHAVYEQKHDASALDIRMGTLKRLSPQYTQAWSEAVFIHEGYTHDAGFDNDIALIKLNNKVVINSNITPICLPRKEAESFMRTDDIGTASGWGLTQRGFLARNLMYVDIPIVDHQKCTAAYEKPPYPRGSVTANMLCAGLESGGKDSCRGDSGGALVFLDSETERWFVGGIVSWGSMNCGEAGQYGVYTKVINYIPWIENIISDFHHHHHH

B1: mAb OMS858 (humanized anti-MASP-2 antibody) (antibody, V domains shown)
VH: QVQLVQSGAEVKKPGASVKVSCKASGYTFTNHHMHWLRQAPGQGLEWIGDIDASDSETHYIEKFKDRATLTIDKSSSTAYMELSSLRSEDTAVYYCARGDITTTLRYFDVWGQGTLVTVSS
VL: DIQLTQSPSSLSASVGDRVTITCSASSSVRYMYWYQQKPGKAPKLLIYDTSNLASGVPSRFSGSGSGTDNTLTISSLQPEDFATYYCQQWSSYPLTFGQGTKVEIKR
notes: also called antibody OMS858; biotinylated OMS858
B1: the “fold reduction of binding affinity against wild-type human MASP-2 CCP1/CCP2/SP” value in assay [1] was about 450 fold. In addition, in assay [2], the EC50 (read off the curve) (commonly the concentration needed to bring the measured effect to its halfway point) was about 0.2 nM.
